The text below walks through data of article PMC8397897.

In the data set the target is DENV capsid protein (DENVC) (Dengue virus 2 strain 16681, UniProt O09234 1-100). The data set is described as follows: nephelometry (condensate formation); NaCl < 150 mM; diminished above; nonlabeled 25 mer. The conditions noted are these: protein: recombinant; chain copies: 2.

B1: ssDNASel25 (Sel25 DNA, 25 mer) (ssDNA)
DNA: GGACAGGAAUUAAUAGUAGCUGUCC
modifications: printed with U although named ssDNA; chemistry ambiguous
Turning to B1, the binding result is given as “binds”.
